The record followed here is publication PMC4164936, “The translation elongation factor eEF1A1 couples transcription to translation during heat shock response”.

The target in data set [1] is T1, eEF1A1 (Homo sapiens (HeLa S-100)) (UniProt P68104).
T1 sequence: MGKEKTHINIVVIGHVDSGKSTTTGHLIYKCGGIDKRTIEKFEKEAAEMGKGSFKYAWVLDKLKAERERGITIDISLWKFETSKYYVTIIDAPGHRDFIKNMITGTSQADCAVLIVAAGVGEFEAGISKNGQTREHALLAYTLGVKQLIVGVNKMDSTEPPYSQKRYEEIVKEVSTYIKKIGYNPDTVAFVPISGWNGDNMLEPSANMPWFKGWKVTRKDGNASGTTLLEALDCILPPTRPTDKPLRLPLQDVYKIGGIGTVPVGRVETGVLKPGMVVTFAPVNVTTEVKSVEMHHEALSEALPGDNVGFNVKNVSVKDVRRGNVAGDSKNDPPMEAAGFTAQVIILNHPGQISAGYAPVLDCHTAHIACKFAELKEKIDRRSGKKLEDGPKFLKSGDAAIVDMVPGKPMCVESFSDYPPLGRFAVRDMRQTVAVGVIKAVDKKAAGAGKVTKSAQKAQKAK
Put plainly: EMSA. Particulars: RNA EMSA: purified eEF1A1 with 20 kcpm RNA (~0.1 pmol/ul), 50 uM GTP, 30 min, room temperature; protein stock in 50 mM Tris-HCl pH 7.5, 100 mM KCl, 0.5 mM …. In general terms: A gel shift assay detects complexes by their altered migration in electrophoresis.

The target in data set [2] is eEF1A1 (Homo sapiens (HeLa S-100), UniProt P68104 1-462). Put plainly: EMSA; relatively weak; reviewer notes no saturation, >300 nM; RNA EMSA: purified eEF1A1 with 20 kcpm RNA (~0.1 pmol/ul), 50 uM GTP, 30 min, room temperature; protein stock in 50 mM Tris-HCl pH 7.5, 100 mM KCl, 0.5 mM EDTA, 2 mM DTT, 10% glycerol; binding buffer per cited protocols (Yan 2008, Shamovsky 2006). To be noted: protein: native; tags: none; (radiolabeled); blunt.

The Kd is the concentration at which binding is half-saturated. Read a high Kd as a looser complex. Molecule HSP70 3'UTR registered a Kd in data set [1] of 100 nM.
With “GGGGGGCCUUUCCAAGAUUGCUGUUUUUGUUUUGGAGCUUCAAGACUUUGCAUUUCCUAGUAUUUCUGUUUGUCAGUUCUCAAUUUCCUGUGUUUGCAAUGUUGAAAUUUUUUGGUGAAGUACUGAACUUGCUUUUUUUCCGGUUUCUACAUGCAGAGAUGAAUUUAUACUGCCAUCUUACGACUAUUUCUUCUUUUUAAUACACUUAACUCAGGCCAUUUUUUAAGUUGGUUACUUCAAAGUAAAUAAACUUUAAAAUUCAA [HSP70 3'UTR]”, in data set [1], the Kd was determined as 100 nM and the binding entry is “binds”.

B1: HSPA1A -141/-91 promoter (dsDNA)
DNA 1: GGAAGGCTGGGGGGCAGGACGGGAGGCGAAAACCCTGGAATATTCCCGACC
DNA 2: GGTCGGGAATATTCCAGGGTTTTCGCCTCCCGTCCTGCCCCCCAGCCTTCC
On to B1, for which the binding result in data set [2] is “binds”.
